This is an account of results in article PMC10478084, “Use of Epivolve phage display to generate a monoclonal antibody with opsonic activity directed against a subdominant epitope on extracellular loop 4 of Treponema pallidum BamA (TP0326)” (Frontiers in Immunology, 2023).

Where two headings read alike, the source gives them in different places. No end group written: not given here. *: point of attachment. Biotin = O=C1N[C@H]2[C@H](CS[C@H]2CCCCC(=O)*)N1

The target in assay [1] is T1, BamA ECL4 peptide S2, native (Treponema pallidum subsp. pallidum, …).
T1 chain: Biotin-RVVKNFYDKDNNQPFDL

Assay [2] deals with T2, Tp BamA β-barrel (TP0326) (Treponema pallidum subsp. pallidum, …, UniProt O83346).
Target sequence in this assay (O83346 434-837): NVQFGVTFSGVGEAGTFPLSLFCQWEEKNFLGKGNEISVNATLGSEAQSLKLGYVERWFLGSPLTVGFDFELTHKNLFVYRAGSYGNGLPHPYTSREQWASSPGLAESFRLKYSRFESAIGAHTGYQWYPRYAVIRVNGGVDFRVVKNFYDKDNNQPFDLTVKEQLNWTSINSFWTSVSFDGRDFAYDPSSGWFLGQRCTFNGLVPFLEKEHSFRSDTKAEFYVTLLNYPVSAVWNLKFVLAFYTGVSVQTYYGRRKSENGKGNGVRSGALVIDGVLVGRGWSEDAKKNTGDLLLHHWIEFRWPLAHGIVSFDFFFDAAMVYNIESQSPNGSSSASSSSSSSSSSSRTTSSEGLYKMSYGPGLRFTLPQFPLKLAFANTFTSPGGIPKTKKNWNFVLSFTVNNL
The target in assay [3] is T2, Tp BamA β-barrel (TP0326). As to the kind of experiment: immunoblot; 200 to 1 ng of PfTrx^BamA/ECL4 or of BamA β-barrel (in 8M urea, Laemmli buffer) resolved by SDS-PAGE, transferred to nitrocellulose, probed with mAb at 4 μg/ml. The note with it: both partners purified.
Target sequence in this assay (O83346 whole entry, looked up): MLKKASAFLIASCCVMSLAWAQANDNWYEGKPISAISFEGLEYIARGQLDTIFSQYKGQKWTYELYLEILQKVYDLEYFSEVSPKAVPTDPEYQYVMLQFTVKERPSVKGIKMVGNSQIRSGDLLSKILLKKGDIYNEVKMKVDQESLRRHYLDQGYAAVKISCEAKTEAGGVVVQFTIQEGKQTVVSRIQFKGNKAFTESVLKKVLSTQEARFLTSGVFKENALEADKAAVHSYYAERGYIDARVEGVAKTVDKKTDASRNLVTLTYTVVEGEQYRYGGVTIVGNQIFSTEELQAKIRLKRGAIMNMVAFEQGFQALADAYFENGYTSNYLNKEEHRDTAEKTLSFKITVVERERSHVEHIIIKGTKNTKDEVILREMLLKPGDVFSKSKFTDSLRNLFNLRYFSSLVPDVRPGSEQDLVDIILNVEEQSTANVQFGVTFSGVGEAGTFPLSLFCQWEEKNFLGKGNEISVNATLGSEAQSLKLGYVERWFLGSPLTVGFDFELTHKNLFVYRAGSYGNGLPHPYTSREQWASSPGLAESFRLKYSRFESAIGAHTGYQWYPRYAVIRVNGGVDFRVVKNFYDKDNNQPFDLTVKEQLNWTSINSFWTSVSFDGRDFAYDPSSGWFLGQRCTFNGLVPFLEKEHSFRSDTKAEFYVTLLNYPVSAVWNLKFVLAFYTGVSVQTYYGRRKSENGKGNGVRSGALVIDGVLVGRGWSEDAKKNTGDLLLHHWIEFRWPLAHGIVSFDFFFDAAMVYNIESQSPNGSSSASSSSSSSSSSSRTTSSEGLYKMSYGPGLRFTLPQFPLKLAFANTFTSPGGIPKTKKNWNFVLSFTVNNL

B1: IGX7128 (antibody, V domains shown)
VH: EVQLVQSGADVKKPGASLTISCQASGYTFTDYWISWVRQKPGKGLEWMGAIAPSTSKTEYGPSFQGHVTISADRSTATAYLQWRSLEASDTAMYYCVRQSAQTDSWGPGTLVTVSS
VL: SYELTQPPSVSVSPGQTARITCSGDALPKKYAYWYQQKSGQAPVLVIYEDRKRYSGIPERFSGSSSGTMATLTISGAQVEDEADYYCYSKAAKGNYMVFGGGTKLTVL
Take B1: the binding result in assay [1] and in assay [2] was “binds” in each case.

B2: mAb IGX7137 (antibody, V domains shown)
VH: EVQLVQSGADVKKPGASLTISCQTSGYTLTDYWISWVRQKPGKGLEWMGAISPANSRTSYGPSFQGHVTFSADRSTATAYLQWRSLEASDTAMYYCVRQGAQTDRWGPGTLVTVSS
VL: SYELTQPPSVSVPPGQTARITCSGDALPKKYAYWYQQKSGQAPVLVIYEDMKRPSGIPERFSGSSSGTTATLTISGAQVEDEADYYCYSKAFDGNYFVFGGGTKLTVL
notes: heavy-chain variable region from the Epivolve scFv; mouse IgG2 heavy-chain constant region; light-chain variable region LC2 (shared with IGX7140); mouse light-chain constant domain; Mouse IgG2 with variable regions from the Epivolve scFv; source: HEK293-E, transfected (pTT5), purified from supernatant (Protein A)
Turning to B2, the binding result in assay [3] is “binds”.

B3: mAb IGX7140 (antibody, V domains shown)
VH: EVQLVQSGADVKKPGASLTISCQASGYTLTDYWISWVRQKPGKGLEWMGAISPANSRTSYGPSFQGHVTFSADRSTATAYLQWRSLEASDTAMYYCVRQGAQTDRWGPGTLVTVSS
VL: SYELTQPPSVSVPPGQTARITCSGDALPKKYAYWYQQKSGQAPVLVIYEDMKRPSGIPERFSGSSSGTTATLTISGAQVEDEADYYCYSKAFDGNYFVFGGGTKLTVL
notes: heavy-chain variable region from the Epivolve scFv; mouse IgG2 heavy-chain constant region; light-chain variable region LC2 (as the light chain of m2); mouse light-chain constant domain; Mouse IgG2 with variable regions from the Epivolve scFv; also called IXG7140; source: HEK293-E, transfected (pTT5), purified from supernatant (Protein A)
Consider B3, for which, in assay [3], the binding result is recorded as “binds”.

B4: mAb IGX7141 (antibody, V domains shown)
VH: EVQLVQSGADVKKPGASLTISCQASGYTFTDYWISWVRQKPGKGLEWMGAISPANSRTSYGPSFQGHVTFSADRSTATAYLQWRSLEASDTAMYYCVRQGAQTDSWGPGTLVTVSS
VL: SYELTQPPSVSVSPGQTARITCSGDALPKKYAYWYQQKSGQAPVLVIYEDMKRPSGIPERFSGSSSGTMATLTISGAQVEDEADYYCYSKASDGNYFVFGGGTKLTVL
notes: heavy-chain variable region from the Epivolve scFv; mouse IgG2 heavy-chain constant region; light-chain variable region LC3; mouse light-chain constant domain; Mouse IgG2 with variable regions selected from a human scFv phage library (Epivolve) and matured by error-prone PCR; source: HEK293-E, transfected (pTT5), purified from supernatant (Protein A)
With B4, the binding result in assay [3] is listed as “binds”.

B5: IGX7134 (antibody, V domains shown)
VH: EVQLVQSGAVVKKPGASLTISCQASGYTFTDYWFSWVRQKPGKGLEWMGAIAPSTSKTEYGPSFQGLVTISADRSTATANLQWRSLEASDTAMYYCVRQGAHTDSWGPGTLVTVSS
VL: SYELTQPPSVSVSPGQTARITCSGDALPKKYAYWYQQKSGQAPVLVIYEDRKRYSGIPERFSGSSSGTMATLTISGAQVEDEADYYCYSKAAKGNYMVFGGGTKLTVL
As to B5, the binding result in assay [1] and in assay [2] was “binds” each time.
